Data on one molecule can be found in article PMC9358478 (The Journal of Biological Chemistry, 2022).

This test concerns the target T1, full-length recombinant human TG2 (human, UniProt P21980 1-687).
T1 sequence: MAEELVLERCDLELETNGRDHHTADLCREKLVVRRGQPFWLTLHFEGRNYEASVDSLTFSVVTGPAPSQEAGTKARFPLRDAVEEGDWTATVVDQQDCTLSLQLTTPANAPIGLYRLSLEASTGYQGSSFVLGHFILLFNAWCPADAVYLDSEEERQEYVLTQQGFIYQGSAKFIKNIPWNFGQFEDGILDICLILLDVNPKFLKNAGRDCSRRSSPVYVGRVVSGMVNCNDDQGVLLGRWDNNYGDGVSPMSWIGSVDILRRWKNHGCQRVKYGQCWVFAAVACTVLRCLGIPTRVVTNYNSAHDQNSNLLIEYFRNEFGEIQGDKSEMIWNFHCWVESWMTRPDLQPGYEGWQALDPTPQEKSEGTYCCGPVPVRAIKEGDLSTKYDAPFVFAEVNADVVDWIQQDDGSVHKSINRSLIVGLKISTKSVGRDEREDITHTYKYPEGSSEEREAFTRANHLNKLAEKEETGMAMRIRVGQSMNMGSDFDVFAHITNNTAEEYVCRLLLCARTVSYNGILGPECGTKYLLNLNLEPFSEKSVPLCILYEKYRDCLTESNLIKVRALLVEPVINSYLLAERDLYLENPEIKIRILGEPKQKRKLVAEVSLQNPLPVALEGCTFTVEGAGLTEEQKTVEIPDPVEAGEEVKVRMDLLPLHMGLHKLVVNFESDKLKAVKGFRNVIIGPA
As to the kind of experiment: co-IP.

B1: full-length recombinant human ILK (natural protein)
chain: MDDIFTQCREGNAVAVRLWLDNTENDLNQGDDHGFSPLHWACREGRSAVVEMLIMRGARINVMNRGDDTPLHLAASHGHRDIVQKLLQYKADINAVNEHGNVPLHYACFWGQDQVAEDLVANGALVSICNKYGEMPVDKAKAPLRELLRERAEKMGQNLNRIPYKDTFWKGTTRTRPRNGTLNKHSGIDFKQLNFLTKLNENHSGELWKGRWQGNDIVVKVLKVRDWSTRKSRDFNEECPRLRIFSHPNVLPVLGACQSPPAPHPTLITHWMPYGSLYNVLHEGTNFVVDQSQAVKFALDMARGMAFLHTLEPLIPRHALNSRSVMIDEDMTARISMADVKFSFQCPGRMYAPAWVAPEALQKKPEDTNRRSADMWSFAVLLWELVTREVPFADLSNMEIGMKVALEGLRPTIPPGISPHVCKLMKICMNEDPAKRPKFDMIVPILEKMQDK
Turning to B1, the binding result is “binds”.
